experiment: yeast display, Sf9 membrane polyspecificity reagent, FACS + sequencing; frameworks hold sequencing errors
Summary of the method: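 In a synthetic yeast display library (Saccharomyces cerevisiae BJ5465), nanobody expression was induced with galactose for 36–48 hours. FACS gates were set low and high (top ~1%) using anti-HA fluorescence for expression and streptavidin fluorescence for binding of the Sf9 membrane reagent. Each polyreactivity label is drawn from the gate of origin.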

| Sequence | polyreactivity (PSR sort gate) |
| --- | --- |
| QVRLVESGGGLVQAGGSLRLSCAASGRTLFVYDMGWYRQAPGKERELVAAISTGDDTNYADSVKGRFTISRDNAKNTVYLQMNSLKPEDTAVYYCNALYYTYPYWGYPSDYNLDYWGQGTQVTVSS | low polyreactivity |
| QVRLVESGGGLVQAGGSLRLSCAASGSTFKTYAMGWYRQAPGIERELVAAISAGGGSTYYADSVKGRFTISRDNAKNTVYLQMNSLKPEDTAVYYCAAAYIYAGWDYEYGGQGTQVTVSS | low polyreactivity |
| RSGGGLVQAGGSLRLSCAPSGRIFKINAMGWYRQPPGKERALVARITRGGSTYYADSVKGRFTISRDNATNTVYLQMTSVKPEDTAVYYCAADDTGPYSNSYDYWGQGTQVTFSS | low polyreactivity |
| RVQLQESGGGLVQAGGSLRLSCAASGTIFIRGDMGWYRQAPGKEREFVATIDTGSNTYYADSEKGRFTISRDNATNAVYLHMNCLKPGDTAFYYCVVDYQLSGRLRYWGQGTQVTLSS | low polyreactivity |
| RVQLVESGGGLVQAGGSLRLSCAASGRIFDNYVMGCYRQAPGKDRELLAAISSGGGTYYADSVKGRFTISRDNAMNTVYLQMNSLKPEDTAVYFCAKRRVYDRSFGRYDYWGQGTQVTGSS | low polyreactivity |
| RVQLVESGGGLVQAGGSLRLSCAASGSTFLVYAMGWYRQAPGKERELVAVIRWRDGSTYYADSVKGRFTISRDNAKNTVYLQLNSLKPEDTAVYYCAAVYWGEEYEYWGQGTQVTVSS | low polyreactivity |

Reference: the nanobody polyreactivity screen of Harvey et al. (2022)
